Six molecules from US20250250314A1 (XILIO DEVELOPMENT, published 2025) can be followed below.

Numbering of substitutions follows the chain as printed.

To fix the notation:
B1: UCM7 (other)
heavy 1: QVQLVQSGVEVKKPGASVKVSCKASGYTFTNYYMYWVRQAPGQGLEWMGGINPSNGGTNFNEKFKNRVTLTTDSSTTTAYMELKSLQFDDTAVYYCARRDYRFDMGFDYWGQGTTVTVSSASTKGPSVFPLAPSSKSTSGGTAALGCLVKDYFPEPVTVSWNSGALTSGVHTFPAVLQSSGLYSLSSVVTVPSSSLGTQTYICNVNHKPSNTKVDKKVEPKSCDKTHTCPPCPAPELLGGPSVFLFPPKPKDTLMISRTPEVTCVVVDVSHEDPEVKFNWYVDGVEVHNAKTKPREEQYASTYRVVSVLTVLHQDWLNGKEYKCKVSNKALPAPIEKTISKAKGQPREPQVYTLPPCRDELTKNQVSLWCLVKGFYPSDIAVEWESNGQPENNYKTTPPVLDSDGSFFLYSKLTVDKSRWQQGNVFSCSVMHEALHNRFTQKSLSLSPGGGSSPPGGGSSGGGSGPAPTSSSTKKTQLQLEHLLLDLQMILNGINNYKNPKLTAMLTAKFAMPKKATELKHLQCLEEALKPLEEVLNLAQSKNFHLRPRDLISNINVIVLELKGSETTFMCEYADETATIVEFLNRWITFAQSIISTLT
heavy 2: QVQLVQSGVEVKKPGASVKVSCKASGYTFTNYYMYWVRQAPGQGLEWMGGINPSNGGTNFNEKFKNRVTLTTDSSTTTAYMELKSLQFDDTAVYYCARRDYRFDMGFDYWGQGTTVTVSSASTKGPSVFPLAPSSKSTSGGTAALGCLVKDYFPEPVTVSWNSGALTSGVHTFPAVLQSSGLYSLSSVVTVPSSSLGTQTYICNVNHKPSNTKVDKKVEPKSCDKTHTCPPCPAPELLGGPSVFLFPPKPKDTLMISRTPEVTCVVVDVSHEDPEVKFNWYVDGVEVHNAKTKPREEQYASTYRVVSVLTVLHQDWLNGKEYKCKVSNKALPAPIEKTISKAKGQPREPQVCTLPPSRDELTKNQVSLSCAVKGFYPSDIAVEWESNGQPENNYKTTPPVLDSDGSFFLVSKLTVDKSRWQQGNVFSCSVMHEALHNHYTQKSLGGPLGLGGSSGSGGSGGGSGSGGGEVQLVESGGGLVQPGGSLRLSCAASGSIFSINVMGWYRQAPGKQRELVAAISSGGSTNYADSVKGRFTISRDNAKNTVYLQMNSLKPEDTAVYYCMYASSWYEDETDYWGQGTQVTVSS
light: EIVLTQSPATLSLSPGERATLSCRASKGVSTSGYSYLHWYQQKPGQAPRLLIYLASYLESGVPARFSGSGSGTDFTLTISSLEPEDFAVYYCQHSRDLPLTFGGGTKVEIKRTVAAPSVFIFPPSDEQLKSGTASVVCLLNNFYPREAKVQWKVDNALQSGNSQESVTEQDSKDSTYSLSSTLTLSKADYEKHKVYACEVTHQGLSSPVTKSFNRGEC
B2: UCM6 (other)
heavy 1: B1 heavy 1
heavy 2: B1 heavy 2 with Q441P, K442A, S443N, G445V, G446A, L448D, G449P, L450G
light: B1 light
B3: UCM5 (other)
heavy 1: B1 heavy 1
heavy 2: B1 heavy 2 with Q441A, K442P, S443A, L444G, G445L, G446I, P447V, L448P, G449Y, L450N
light: B1 light
B4: UCM2 (other)
heavy 1: B1 heavy 1
heavy 2: B1 heavy 2 with G445S, G446L
light: B1 light
B5: UCM4 (other)
heavy 1: B1 heavy 1
heavy 2: B1 heavy 2 with S443M, L444P, G445Y, G446D, P447L, L448Y, G449H, L450P
light: B1 light
B6: UCM8 (other)
heavy 1: B1 heavy 1
heavy 2: QVQLVQSGVEVKKPGASVKVSCKASGYTFTNYYMYWVRQAPGQGLEWMGGINPSNGGTNFNEKFKNRVTLTTDSSTTTAYMELKSLQFDDTAVYYCARRDYRFDMGFDYWGQGTTVTVSSASTKGPSVFPLAPSSKSTSGGTAALGCLVKDYFPEPVTVSWNSGALTSGVHTFPAVLQSSGLYSLSSVVTVPSSSLGTQTYICNVNHKPSNTKVDKKVEPKSCDKTHTCPPCPAPELLGGPSVFLFPPKPKDTLMISRTPEVTCVVVDVSHEDPEVKFNWYVDGVEVHNAKTKPREEQYASTYRVVSVLTVLHQDWLNGKEYKCKVSNKALPAPIEKTISKAKGQPREPQVCTLPPSRDELTKNQVSLSCAVKGFYPSDIAVEWESNGQPENNYKTTPPVLDSDGSFFLVSKLTVDKSRWQQGNVFSCSVMHEALHNHYTQKSLSLPLGLGGSSGSGGSGGGSGSGGGSGGSGGEVQLVESGGGLVQPGGSLRLSCAASGSIFSINVMGWYRQAPGKQRELVAAISSGGSTNYADSVKGRFTISRDNAKNTVYLQMNSLKPEDTAVYYCMYASSWYEDETDYWGQGTQVTVSS
light: B1 light

The target of this assay is PD-1 from the PD-1 effector cells (UniProt Q15116 25-288, limits assumed). Nature of the assay: cell-based or functional assay.
PD-1 from the PD-1 effector cells, sequence (Q15116 25-288 limits assumed): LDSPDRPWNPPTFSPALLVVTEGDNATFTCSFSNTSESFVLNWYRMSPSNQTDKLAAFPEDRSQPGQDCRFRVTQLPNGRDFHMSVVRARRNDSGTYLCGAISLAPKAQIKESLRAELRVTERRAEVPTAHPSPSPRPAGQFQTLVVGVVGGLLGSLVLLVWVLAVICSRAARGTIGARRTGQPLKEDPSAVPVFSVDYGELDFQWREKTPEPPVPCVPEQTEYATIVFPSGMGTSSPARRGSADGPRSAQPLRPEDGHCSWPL
As for B1, the “EC50 (nM), fold induction of luminescence in the PD-1/PD-L1 Blockade Bioassay” value (from here on “EC50 (nM), fold induction”) turned out to be 1.36 nM.

On to B2, for which the “EC50 (nM), fold induction” value amounted to 1.2 nM.

B3: the “EC50 (nM), fold induction” value is 1.15 nM.

As for B4, the “EC50 (nM), fold induction” value came out at 0.84 nM.

For the molecule B5, the “EC50 (nM), fold induction” value was 1.28 nM.

B6: the “EC50 (nM), fold induction” value is 1.09 nM.
